# Marks after values point to notes of the source that are not given here.
# B1: seribantumab (antibody, chains of the INN, looked up)
# heavy: EVQLLESGGGLVQPGGSLRLSCAASGFTFSHYVMAWVRQAPGKGLEWVSSISSSGGWTLYADSVKGRFTISRDNSKNTLYLQMNSLRAEDTAVYYCTRGLKMATIFDYWGQGTLVTVSSASTKGPSVFPLAPCSRSTSESTAALGCLVKDYFPEPVTVSWNSGALTSGVHTFPAVLQSSGLYSLSSVVTVPSSNFGTQTYTCNVDHKPSNTKVDKTVERKCCVECPPCPAPPVAGPSVFLFPPKPKDTLMISRTPEVTCVVVDVSHEDPEVQFNWYVDGVEVHNAKTKPREEQFNSTFRVVSVLTVVHQDWLNGKEYKCKVSNKGLPAPIEKTISKTKGQPREPQVYTLPPSREEMTKNQVSLTCLVKGFYPSDIAVEWESNGQPENNYKTTPPMLDSDGSFFLYSKLTVDKSRWQQGNVFSCSVMHEALHNHYTQKSLSLSPG
# light: QSALTQPASVSGSPGQSITISCTGTSSDVGSYNVVSWYQQHPGKAPKLIIYEVSQRPSGVSNRFSGSKSGNTASLTISGLQTEDEADYYCCSYAGSSIFVIFGGGTKVTVLGQPKAAPSVTLFPPSSEELQANKATLVCLVSDFYPGAVTVAWKADGSPVKVGVETTKPSKQSNNKYAASSYLSLTPEQWKSHRSYSCRVTHEGSTVEKTVAPAECS
# How the values were obtained:
# EGFR-mutated NSCLC = conditions: cited from earlier work
# [1] = Phase I study U31402-A-U102, HER3-DXd i.v. once every 3 weeks: safety; format: in vivo, human
# [2] = all patients 3.2/4.8/5.6/6.4 mg/kg (n = 81)
molecule,measurement,setting,value
"C=CC(=O)Nc1cc(Nc2nccc(-c3cn(C)c4ccccc34)n2)c(OC)cc1N(C)CCN(C)C [osimertinib, reference compound]",Median OS,EGFR-mutated NSCLC; third-generation EGFR TKI compared with first-generation EGFR TKIs,38.6 months
Patritumab deruxtecan [HER3-DXd],Patients who experienced dose-limiting toxicities,"[1]; 4.8 mg/kg dose group, grade 3 neutrophil count decreased, grade 4 platelet count decrease, white blood cell count decrease",1 patient
same,Patients who experienced dose-limiting toxicities,"[1]; 6.4 mg/kg dose group, grade 4 platelet count decrease",3 patients
same,Patients who experienced dose-limiting toxicities,"[1]; […] dose group, grade 3 febrile neutropenia and grade 4 platelet count decrease",1 patient
same,"Adjudicated treatment-related ILD, patients",[1]; all doses (4/81),5%
same,"TEAEs associated with death, patients","[1]; all doses (5/81), none judged related to study treatment",6%
same,"Treatment discontinued due to TEAEs, patients",[1]; all doses (7/81),9%
same,"Grade 4 thrombocytopenia, patients",[1]; all doses (11/81),13.6%
same,"Grade ≥3 neutropenia, patients",[1]; all doses (12/81),15%
same,"TEAEs associated with dose reduction, patients",[1]; all doses (18/81),22%
same,"Grade ≥3 thrombocytopenia, patients",[1]; all doses (21/81),26%
same,"TEAEs associated with dose interruption, patients",[1]; all doses (30/81),37%
same,"TEAE nausea, patients",[1]; all doses (49/81),60%
same,"Grade ≥3 TEAEs, patients",[1]; all doses (52/81),64%
same,"TEAE fatigue, patients",[1]; all doses (52/81),64%
same,Adjudicated ILD,[1]; [2],5 (6)^e n (%)
same,Adjudicated treatment-related ILD,[1]; [2],4 (5)^f n (%)
same,Any TEAE,[1]; [2],81 (100) n (%)
same,Grade ≥3 TEAE: Anemia/hemoglobin decrease,[1]; [2],6 (7) n (%)
same,Grade ≥3 TEAE: Dyspnea,[1]; [2],5 (6) n (%)
same,Grade ≥3 TEAE: Fatigue,[1]; [2],8 (10) n (%)
same,Grade ≥3 TEAE: Febrile neutropenia,[1]; [2],5 (6) n (%)
same,Grade ≥3 TEAE: Hypokalemia,[1]; [2],4 (5) n (%)
same,Grade ≥3 TEAE: Hypoxia,[1]; [2],5 (6) n (%)
same,Grade ≥3 TEAE: Lymphocyte count decrease/lymphopenia,[1]; [2],4 (5) n (%)
same,Grade ≥3 TEAE: Neutrophil count decrease/neutropenia,[1]; [2],12 (15) n (%)
same,Grade ≥3 TEAE: Platelet count decrease/thrombocytopenia,[1]; [2],21 (26) n (%)
same,Grade ≥3 TEAE: White blood cell count decrease/leukopenia,[1]; [2],5 (6) n (%)
same,Grade ≥3 TEAEs,[1]; [2],52 (64) n (%)
same,Grade ≥3 treatment-related TEAEs,[1]; [2],38 (47) n (%)
same,Serious TEAEs,[1]; [2],32 (40) n (%)
same,Serious treatment-related TEAEs,[1]; [2],15 (19) n (%)
same,TEAEs associated with death,[1]; [2],5 (6)^d n (%)
same,TEAEs associated with dose interruption,[1]; [2],30 (37) n (%)
same,TEAEs associated with dose reduction,[1]; [2],18 (22) n (%)
same,TEAEs associated with treatment discontinuation,[1]; [2],7 (9)^b n (%)
same,Treatment-related TEAEs,[1]; [2],78 (96) n (%)
same,Treatment-related TEAEs associated with death,[1]; [2],0 n (%)
same,Patients who experienced dose-limiting toxicities,"[1]; dose escalation part, 36 patients",5 patients
same,Recommended dose for expansion (RDE),[1]; i.v. once every 3 weeks,5.6 mg/kg
same,TEAEs associated with dose interruption,[1]; pooled RDE […] (n = 57),21 (37) n (%)
same,TEAEs associated with dose reduction,[1]; pooled RDE […] (n = 57),12 (21) n (%)
B1,Efficacy of unconjugated HER3 antibody,EGFR-mutated NSCLC; in combination with erlotinib,did not confer clinically meaningful efficacy

# From PMC9401524 (Cancer Discovery, 2021)
